Reference: the RNAGym collection of RNA variant scans (doi:10.1073/pnas.2313332121)
This sample holds only a part of the variants without activity.

B1: TPR 5TU (parent)
chain: GGAUCUUCUCGAUCUAACAAAAAAGACAAAUCUGCCACAAAGCUUGAGAGCAUCUUCGGAUGCAGAGGCGGCAGCCUUCGGUGGCGCGAUAGCGCCAACGUUCUCAACUAUGACACGCAAAACGCGUGCUCCGUUGAAUGGAGUUUAUCAUG

Variants of: B1
Test: polymerase ribozyme fitness, log enrichment relative to wild type (log ratio); higher = more active; in vitro selection for triplet polymerase activity
Outline: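 For each subunit of a heterodimeric triplet polymerase ribozyme, a mutant library was built by PCR and transcribed, then taken through a single in vitro selection round in triplicate. Selection involved annealing to a biotinylated primer, the partner subunit and triplets, incubation frozen at −7 °C, gel excision of extended constructs, capture on streptavidin beads and RT-PCR. Genotypes were retained after Illumina sequencing of inputs and outputs only with ≥10 input reads and ≥1 read in each output. Fitness is defined as the logarithm of a genotype's enrichment relative to wild-type enrichment, using inverse-variance-weighted averages across replicates, with the logarithm taken to base 2.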
With GGAUCUUCUCGAUCUAACAAAAAAGACAAAUCUGCCACAAAGCUUGAGAGCAUCUUUGGAUGCUGAGGCGGCAGCCUUCGGUGGCGCGAUAGCGCCAACGUUCUCAACUAUGAUACGCAAAACGCGUGCUCCGUUGAAUGGAGUUUAUCAUG the “polymerase ribozyme fitness (log ratio)” value was no more than -4.2. In the case of GGAUCUUCUCGAUCUAACAAAAAAGACAAAUCUGCCACAAAGCUUGAGAGCAUCUUUGGAUGCAGCGGCGGCAGCCUUCGGUGGCGCGAUAGCGCCAACGUUCUCAACUAUGACACGCAAAACGCGUGCUCCGUUGAAUGGAGUUUAUCAUG, the “polymerase ribozyme fitness (log ratio)” value is reported as -3.93. In the case of GGAUCUUCUCGAUCUAACAAAAAAGACAAAUCUGCCACAAAGCUUGAGAGCAUCUUGGGAUGCAGAGGCGGCAGCCUUCGGUGGCGCGAUAGCGCCAACGUUCUCAACUAUGACACGCAAAACGCGUGCUCCGUUGAAUGGAGUUAAUCAUG, the “polymerase ribozyme fitness (log ratio)” value is reported as -0.273. In the case of GGAUCUUCUCGAUCUAACAAAAAAGACAAAUCUGCCACAAAGCUUGAGAGCAUCUUGGGAUGCAGAGGCGGCAGCCUUCGGUGGCGCGAUAGCCCCAGCGUUCUUAACUAUGACACGCAAAACGCGUGCUCCGUUGAAUGGAGUUUAUCAUG, the “polymerase ribozyme fitness (log ratio)” value is reported as -0.386. In the case of GGAUCUUCUCGAUCUAACAAAAAAGACAAAUCUGCCACAAAGCUUGAGAGCAUCUUUGGAUGCAGAGGCGGCAGCCUUCGGUGGCGCGAUUGCGCCAACGUGCUCAACUAUGACACGCAAAACGCGUGCUCCGUUGAAUGGAGUUUAUCAUU, the “polymerase ribozyme fitness (log ratio)” value is reported as -3.9. In the case of GGAUCUUCUCGAUCUAACAAAAAAGACAAAUCUGCCACAAAGCUUGAGAGCAUCUUUGGAUGCAGAGGCGGCAGCCUUCGGUGGCGCGAUAGCGCCAACGUUCUCAACUAUGACACGCAAAACGCGUGCUCCGUUGAAUGGAGUUUAUCAUG, the “polymerase ribozyme fitness (log ratio)” value is reported as -0.0371. In the case of GGAUCUUCUCGAUCUAACAAAAAAGACAAAUCUGCCACAAAGCUUGAGAGCAUCUUUGGAUGCCGAGGCGGCAGCCUUCGGUGGCGCGUUAGCGCCAACGUUCUCAACUAUGACACGCAAAACGCGUUCUCCGUUGAAUGGAGUUUAACAUG, the “polymerase ribozyme fitness (log ratio)” value is reported as no more than -4.2. In the case of GGAUCUUCUCGAUCUAACAAAAAAGACAAAUCUGCCACAAAGCUUGAGAGCAUCUUGGGAUGCAGAGGCGGCAGCCUACGGUGACGCGAUAGCCCCAACGUUUUAAACUAUGACACGCAAAACGCGUGCUCCUUUGAAUUGAGCUUAUCAUG, the “polymerase ribozyme fitness (log ratio)” value is reported as no more than -4.2. In the case of GGAUCUUCUCGAUCUAACAAAAAAGACAAAUCUGCCACAAAGCUUGAGAGCAUCUUGGGAUGCAGAGGCGGCAGCCUUCGGUGGCGCGAUAGCGCCAACGUUCUCAACUAUGACACGCAAAACGCGUGCUCCGUUGAAUGAAGUUUAUCAUG, the “polymerase ribozyme fitness (log ratio)” value is reported as 0.453. In the case of GGAUCUUCUCGAUCUAACAAAAAAGACAAAUCUGCCACAAAGCUUGAGAGCAUCUUUGGAUGCAGAGGCGGCAGCCUUCGGUGGCGCGAUCGCGCCAACGUUCUCAACUAUGACACGCAAAACGCGUGCUCCGUUGAAUGGAGUUUAUCAUG, the “polymerase ribozyme fitness (log ratio)” value is reported as no more than -4.2. With GGAUCUUCUCGAUCUAACAAAAAAGACAAAUCUGCCACAAAGCUUGAGAGCAUCUUUGGAUGCAGAGGCGGCAGCCUUCGGUGGCGCGAUGGCGCCAACGUUCUCAACUAUGACACGCAAAACGCGUGCUCCGUUGAAUGGAGUUUAUCAUG the “polymerase ribozyme fitness (log ratio)” value was -2.92. With GGAUCUUCUCGAUCUAACAAAAAAGACAAAUCUGCCACAAAGCUUGAGAGCAUCUUUGGAUGCAGAGGCGGCAGCCUUCGGUGGCGCGAUAGCGCCGACGUUCUCAACUAUGACACGCAAAACGCGUGCUCCGUUGAAUGGAGUUUAUCAUG the “polymerase ribozyme fitness (log ratio)” value was -0.11. In the case of GGAUCUUCUCGAUCUAACAAAAAAGACAAAUCUGCCACAAAGCUUGAGAGCAUCUUUGGAUGCAGCGGCGGCAGCCUUCGGUGGCGCGAUAUAGCCAACGUUCUCAACUAUGACACGCAAAACGCGUGCUCCGUUGAAUGGAGUUUAUCAUG, the “polymerase ribozyme fitness (log ratio)” value is reported as no more than -4.2. In the case of GGAUCUUCUCGAUCUAACAAAAAAGACAAAUCUGCCACAAAGCUUGAGAGCAUCUUUGGAUGCAGAGGCGGCAGCCUUCGGUGGCGCGAUAGCGCCGACGUUCUCAACUAUGACACGCAAAACGCGUCCUCCGUUGAAUGCAGUUUAUCAUG, the “polymerase ribozyme fitness (log ratio)” value is reported as -3.99. In the case of GGAUCUUCUCGAUCUAACAAAAAAGACAAAUCUGCCACAAAGCUUGAGAGCAUCUUUGGAUGCAGAGGCGGCAGCCUUCGGUGGCGCGAUGGCGCCGACGUUCUCAACUAUGACACGCAAAACGCGUGCUCCGUAGAAUGGAAUUUAUCAUG, the “polymerase ribozyme fitness (log ratio)” value is reported as no more than -4.2. In the case of GGAUCUUCUCGAUCUAACAAAAAAGACAAAUCUGCCACAAAGCUUGAGAGCAUCUUGGGAUGCAGAGGCGGCAGCCUUCGGUGGCGCGAUAGCGCCAACGUUCUCAACUAUGACACGCAAAACGCGUGCUCCGUUGAAUGGACUUUAUCAUG, the “polymerase ribozyme fitness (log ratio)” value is reported as -1.72. For GGAUCUUCUCGAUCUAACAAAAAAGACAAAUCUGCCACAAAGCUUGAGAGCAUCUUGGGAUGCAGAGGCGGCAGCCCUCGGUGACGCGAUAGCGCCAACGUUCUCAACUAUGACACGCAAAACGCGUGCUCCGAUGAAUGGAGUUUAUCAUG, the “polymerase ribozyme fitness (log ratio)” value was no more than -4.2. With GGAUCUUCUCGAUCUAACAAAAAAGACAAAUCUGCCACAAAGCUUGAGAGCAUCUUGGGAUGCAGAGGCGGCAGCCUUCGGAGGCGCGAUAGCGCCAGCGUUCUCAACUAUGACACGCAAAACGCGUGCUCCGUUGAAUGGAGUUUAUCAUG the “polymerase ribozyme fitness (log ratio)” value was -3.69. In the case of GGAUCUUCUCGAUCUAACAAAAAAGACAAAUCUGCCACAAAGCUUGAGAGCAUCUUUGGAUGCAGAGGCGGCGGCCUUCGGUGCCGCGAUAGCGACAACGUUCUCAACUAUGACACGGAAAACGCGUGCUCCGUUGAAUGGAGUUUAUCAUG, the “polymerase ribozyme fitness (log ratio)” value is reported as -2.62.
